Tested on: MS2 coat protein
Experiment: apparent KD of MS2 coat protein; designed switch direction (-1 OFF switch, 1 ON switch): -1; higher = weaker reporter binding
Outline: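 The buffer was Tris-HCl pH 7.5 with KCl, MgCl2, BSA, DTT, tRNA and Tween-20. In it, SNAP-549-labelled MS2 coat protein was titrated in doubling steps from 0.7 or 1.5 nM to 3 µM over chip-bound RNA switches transcribed by stalled E. coli RNA polymerase on Illumina chips. Apparent KD is the per-design median over clusters of curve fits to normalised fluorescence.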

[1] = Eterna round: R95, input ligand: microRNA oligo, concentration not stated
[2] = input ligand: microRNA oligo, concentration not stated
[3] = Eterna round: R95, input ligand: FMN 200 uM
[4] = Eterna round: R95, input ligand: none

Sequence: AAAUUGCUAGAGGAUAUCGGAUAGAAUUUAUUACGAGAAGGUUAGACAUGAGGAUCACCCAUGUUCUGUUGGGA [EX6 #23] (Eterna round: R97, puzzle: Exclusion 6)
- apparent KD of MS2 coat protein (input ligand: FMN 200 uM): 70.1 nM
- apparent KD of MS2 coat protein (input ligand: none): 29.1 nM

Sequence: AACAACUCUGUGAGGAUAUGCAAUUGUUGAUCAAGGCAGAAGGCACAUGAGGAUCACCCAUGUUCCUACAAGGG [Reatanan] (puzzle: Brourd's mod of Exclusion 4)
- apparent KD of MS2 coat protein [1]: 46.5 nM

Sequence: AACAAGUGAGGAUAUGAACCACUUGCCCACGCAUGCGUGGAUCAGAAGGCACUUGAGGAUCACCCAAGUCCUAA [Texeusso] (Eterna round: R97, puzzle: Exclusion 4)
- apparent KD of MS2 coat protein (input ligand: FMN 200 uM): 49.7 nM
- apparent KD of MS2 coat protein (input ligand: none): 21.3 nM

Sequence: AACAUCGUAGGAUAUUCGUGCUCAGACAUGAGGAUCACCCAUGUUUGGUGGGUUGGAGAAGGAGAAGGGCGAUGGA [EX5 #18] (Eterna round: R97, puzzle: Exclusion 5)
- apparent KD of MS2 coat protein (input ligand: FMN 200 uM): 67.9 nM
- apparent KD of MS2 coat protein (input ligand: none): 92.8 nM

Sequence: AACAUGGUAAAGGAUAUUGUCGCAGAAUGCGAUCAAGAAGGUUACACAUGAGGAUCACCCAUGUGGAAUCCAUC [Eternabot (Original) Solution 24] (Eterna round: R97, puzzle: Exclusion 6)
- apparent KD of MS2 coat protein (input ligand: FMN 200 uM): 63.2 nM
- apparent KD of MS2 coat protein (input ligand: none): 17.2 nM

Sequence: AACCAGCGAGGAUAUUGUUGAUAAAACAUGAGGAUCACCCAUGUCACGUGAUCUUCCCAACAAGAAGGUGCACUAA [Xeoratdior] (Eterna round: R97, puzzle: Exclusion 5)
- apparent KD of MS2 coat protein (input ligand: FMN 200 uM): 652 nM
- apparent KD of MS2 coat protein (input ligand: none): 301 nM

Sequence: AACCCUCGUCAAGGAUAUACAUAGAAAAGCUUGGUAGAAGGUGACAUGAGGAUCACCCAUGUAAAAGGCCUGUCCAUUCAGGCC [Isonce] (Eterna round: R96, puzzle: Exclusion NG 1)
- apparent KD of MS2 coat protein (input ligand: FMN 200 uM): 96.4 nM
- apparent KD of MS2 coat protein [2]: 67.8 nM
- apparent KD of MS2 coat protein (input ligand: none): 78.1 nM

Sequence: AACCCUGAUGACAAAUUACAUGAGGAUCACCCAUGUGCCUCACAGGAUAUCCCAGCACGUCGCUAGGAGAAGGGUGACGCGCCA [Tienen] (Eterna round: R96, puzzle: Exclusion NG 3)
- apparent KD of MS2 coat protein (input ligand: FMN 200 uM): 37.5 nM
- apparent KD of MS2 coat protein [2]: 25.1 nM
- apparent KD of MS2 coat protein (input ligand: none): 30 nM

Sequence: AACCGCAUAGGAUAUCGAGCAGAGGACUUGAGGAUCACCCAAGUCCUUGAGUUCUUUGUCCGAGAAGGAUGAACAU [Ususrace] (Eterna round: R97, puzzle: Exclusion 5)
- apparent KD of MS2 coat protein (input ligand: FMN 200 uM): 13.7 nM
- apparent KD of MS2 coat protein (input ligand: none): 14.6 nM

Sequence: AACCUGAGGCAAAGCUUUAGGUGUACAUGAGGAUCACCCAUGUAGGAUAUGGUAGGCAAAGCUUACCAGAAGGACAUUGGCGUA [Mat - Exclusion NG 3 - Mod of JL - D41] (Eterna round: R96, puzzle: Exclusion NG 3)
- apparent KD of MS2 coat protein (input ligand: FMN 200 uM): 418 nM
- apparent KD of MS2 coat protein [2]: 93.8 nM
- apparent KD of MS2 coat protein (input ligand: none): 119 nM

Sequence: AACCUGAGGCUUUGCUUUAGGUGUACAUGAGGAUCACCCAUGUAGGAUAUGGUAGGCAAAGCUUACCAGAAGGACAUGUUAAUU [Mat - Exclusion NG 3 - Mod of JL - D37] (Eterna round: R96, puzzle: Exclusion NG 3)
- apparent KD of MS2 coat protein (input ligand: FMN 200 uM): 122 nM
- apparent KD of MS2 coat protein [2]: 44.3 nM
- apparent KD of MS2 coat protein (input ligand: none): 59.3 nM

Sequence: AACCUGGCUGUUCACAGGAACAUGAGGAUCACCCAUGUCGUGGGUAGAUCCCUCCCUGGGAAAUCUGCUCGUCUUAU [Cac Sensor turn off v1 sub13] (Eterna round: R97, puzzle: Sensor, turn-off variant 1)
- apparent KD of MS2 coat protein (input ligand: FMN 200 uM): 34.6 nM
- apparent KD of MS2 coat protein (input ligand: none): 34.2 nM

Sequence: AACCUUUAGUUAGGAUAUCGCAUCACCGUCAAGUGAGAAGGGACAUGAGGAUCACCCAUGUCUUCCGUGGGCUACACUGCUUCU [Eternabot solution 5] (Eterna round: R96, puzzle: Exclusion NG 1)
- apparent KD of MS2 coat protein (input ligand: FMN 200 uM): 19 nM
- apparent KD of MS2 coat protein [2]: 19.4 nM
- apparent KD of MS2 coat protein (input ligand: none): 27.4 nM

Sequence: AACGUCGAAGGAUAUACAUGAGGAUCACCCAUGUGGGACCUGUAAUCUCACCCAUCGUGUAGAAGGUUGAGGUA [Learberi] (Eterna round: R97, puzzle: Exclusion 3)
- apparent KD of MS2 coat protein (input ligand: FMN 200 uM): 29.9 nM
- apparent KD of MS2 coat protein (input ligand: none): 35.6 nM

Sequence: AACGUGCAGCUUUGCUGUACGCGUACAUGAGGAUCACCCAUGUAGGAUAUGGUACGCAAAGCGUGCUAGAAGGAUAUGGAGAAA [Mat - Exclusion NG 3 - Mod of JL - D82] (Eterna round: R96, puzzle: Exclusion NG 3)
- apparent KD of MS2 coat protein (input ligand: FMN 200 uM): 14.7 nM
- apparent KD of MS2 coat protein [2]: 11.5 nM
- apparent KD of MS2 coat protein (input ligand: none): 16.2 nM

Sequence: AACGUGGCAAAGGAUAUCCACACGGCAAAGCCGGGAGAAGGUUGCACAUGAGGAUCACCCAUGUGAACCAAACA [Onsozamati] (puzzle: Exclusion 6)
- apparent KD of MS2 coat protein [1]: 13.6 nM

Sequence: AACUGGACAGGAUAUGUUCUUGAGCACUUGAGGAUCACCCAAGUCAUCAAGAACUCAGGCACAGAAGGGUUUAUGU [salish99_ex5_r4_002] (Eterna round: R97, puzzle: Exclusion 5)
- apparent KD of MS2 coat protein (input ligand: FMN 200 uM): 45.9 nM
- apparent KD of MS2 coat protein (input ligand: none): 13.6 nM

Sequence: AACUUACAUGAGGAUCACCCAUGUCAGGAUAUCGAAAUUGGCCUGCAAUUACAGGCGACGAGAAGGGACGUUUU [EX1 B.24] (Eterna round: R97, puzzle: Exclusion 1)
- apparent KD of MS2 coat protein (input ligand: FMN 200 uM): 29.3 nM
- apparent KD of MS2 coat protein (input ligand: none): 16.9 nM

Sequence: AAGAAACAUGAGGAUCACCCAUGUGAGGAUAUGAAAAAGAAAAGAAAAGAAAGAAGAAUCAGAAGGCACAAAGG [Nebkaure Khety II] (Eterna round: R96, puzzle: Exclusion 1)
- apparent KD of MS2 coat protein [2]: 24.3 nM

Sequence: AAGAAACAUGAGGAUCACCCAUGUGAGGAUAUGAAAAAGAAAAGAAAAGAAAGAAGAAUCAGAAGGCACAAAGG [salish99-ex1_r3_019] (puzzle: Exclusion 1)
- apparent KD of MS2 coat protein [3]: 40.5 nM
- apparent KD of MS2 coat protein [1]: 30.7 nM
- apparent KD of MS2 coat protein [4]: 34 nM

Sequence: AAGAAACAUGAGGAUCACCCAUGUGAGGAUAUGAACAAGAAAAGAAAAGAAAGAAGAAUCAGAAGGCACAAAGG [salish99-ex1_r3_047] (puzzle: Exclusion 1)
- apparent KD of MS2 coat protein [3]: 102 nM
- apparent KD of MS2 coat protein [1]: 49.2 nM
- apparent KD of MS2 coat protein [4]: 84.7 nM

Sequence: AAGAAACAUGAGGAUCACCCAUGUGAGGAUAUGACCAAGAAAAGAAAAGAAAGAAGAGUCAGAAGGCACAAAGG [salish99-ex1_r3_066] (puzzle: Exclusion 1)
- apparent KD of MS2 coat protein [3]: 99.7 nM
- apparent KD of MS2 coat protein [1]: 56.6 nM
- apparent KD of MS2 coat protein [4]: 181 nM

Sequence: AAGAAACAUGAGGAUCACCCAUGUGAGGAUAUGACGAAGAAAAGAAAAGAAAGAAGAUUCAGAAGGCACAAAGG [salish99-ex1_r3_061] (puzzle: Exclusion 1)
- apparent KD of MS2 coat protein [3]: 90.1 nM
- apparent KD of MS2 coat protein [1]: 42.9 nM
- apparent KD of MS2 coat protein [4]: 56.4 nM

Sequence: AAGAAACAUGAGGAUCACCCAUGUGAGGAUAUGAGCAAGAAAAGAAAAGAAAGAAGAUUCAGAAGGCACAAAGG [salish99-ex1_r3_059] (puzzle: Exclusion 1)
- apparent KD of MS2 coat protein [3]: 61.6 nM
- apparent KD of MS2 coat protein [1]: 39.4 nM
- apparent KD of MS2 coat protein [4]: 59.3 nM

Sequence: AAGAAACAUGAGGAUCACCCAUGUGAGGAUAUGAUGAAGAAAAGAAAAGAAAGAAGAAUCAGAAGGCACAAAGG [salish99-ex1_r3_043] (puzzle: Exclusion 1)
- apparent KD of MS2 coat protein [3]: 83.6 nM
- apparent KD of MS2 coat protein [1]: 48.2 nM
- apparent KD of MS2 coat protein [4]: 66.5 nM

Sequence: AAGAAACAUGAGGAUCACCCAUGUGAGGAUAUGUAAAAGAAAAGAAAAGAAAGAAGAAACAGAAGGCACAAAGG [Mat - Mod of Hog D12] (puzzle: Exclusion 1)
- apparent KD of MS2 coat protein [3]: 82 nM
- apparent KD of MS2 coat protein [1]: 50.7 nM
- apparent KD of MS2 coat protein [4]: 45.2 nM

Sequence: AAGAAACAUGAGGAUCACCCAUGUGAGGAUAUGUAAAAUAAAAGAAAAGAAAGAAUAAACAGAAGGCACAAAGG [Mat - Mod of Hog D14] (puzzle: Exclusion 1)
- apparent KD of MS2 coat protein [3]: 69.9 nM
- apparent KD of MS2 coat protein [1]: 64.4 nM
- apparent KD of MS2 coat protein [4]: 52.6 nM

Sequence: AAGAAACAUGAGGAUCACCCAUGUGAGGAUAUGUAAAAUAAAAUAAAAUAAAUAAUAAACAGAAGGCACAAAGG [Mat - Mod of Hog D17] (puzzle: Exclusion 1)
- apparent KD of MS2 coat protein [1]: 58.6 nM

Sequence: AAGAAAGGUGACAUGGGCGACAUGAGGAUCACCCAUGUUACAAGCUUGUUGCUCGUCUUAUAAUUAACCCAUGUCAC [LRO Sensor-off var1-21 mod of Stov1-13-A1 by Brourd] (Eterna round: R97, puzzle: Sensor, turn-off variant 1)
- apparent KD of MS2 coat protein (input ligand: FMN 200 uM): 16.1 nM
- apparent KD of MS2 coat protein (input ligand: none): 17.9 nM

Sequence: AAGAAGAAACAAGCUUUUUGCUCGUCUUAUAGUGACGCAACAUGAGGAUCACCCAUGUAUAGGAUGAGGGUGGAUAG [JR_SV3TOV2_Sub046] (puzzle: Sensor v3, turn-off variant 2)
- apparent KD of MS2 coat protein [3]: 76.9 nM
- apparent KD of MS2 coat protein [1]: 324 nM
- apparent KD of MS2 coat protein [4]: 72 nM

Sequence: AAGAAGAAGUAAGGAUAUGAAGAUUUGGUGAUAACAUGAGGAUCACCCAUGUGAAAACAAUAAAAUCAGAAGGUAUAAGAAGAA [AK ExNG2-2] (Eterna round: R96, puzzle: Exclusion NG 2)
- apparent KD of MS2 coat protein (input ligand: FMN 200 uM): 57.6 nM
- apparent KD of MS2 coat protein [2]: 37.3 nM
- apparent KD of MS2 coat protein (input ligand: none): 58 nM

Sequence: AAGAAGAUCGGAGGAUAUGGAGCUGAAACGGCGCUAGAAGGCCGUCUAGUGUAACAUGAGGAUCACCCAUGUAGGGACCUCUAA [EX ng 1 4.2] (Eterna round: R96, puzzle: Exclusion NG 1)
- apparent KD of MS2 coat protein (input ligand: FMN 200 uM): 944 nM
- apparent KD of MS2 coat protein [2]: 633 nM
- apparent KD of MS2 coat protein (input ligand: none): 558 nM

Sequence: AAGAAGCAAGGAUAUACAGAGGAGAGGAAAGCAAGAGGAGGACAUGAGGAUCACCCAUGUAGAAGGUGCAGAGA [JR_Exclu2_Sub019] (puzzle: Exclusion 2)
- apparent KD of MS2 coat protein [3]: 67.4 nM
- apparent KD of MS2 coat protein [1]: 68.8 nM
- apparent KD of MS2 coat protein [4]: 63.5 nM

Sequence: AAGAAUGAAGGAUAUACAUGAGGAUCACCCAUGUAAAAAAAAUUUUUUAGUUUUUCAUGUAGAAGGUCAAGAAG [JR_Exclusion3_Sub001] (puzzle: Exclusion 3)
- apparent KD of MS2 coat protein [3]: 47.9 nM
- apparent KD of MS2 coat protein [1]: 41.8 nM
- apparent KD of MS2 coat protein [4]: 43.6 nM

— the supplement of paper PMC9170038
